Measurements taken from the supplement of paper PMC10126150.
± gives the standard deviation of the averaged measurements.

These sequences were tested on ATP (assay: switch fluorescence ratio, 500 uM ATP over buffer (Cy3 cluster intensity, sum of 5 cycles each) (fold (ratio)); higher = stronger signal-on switching upon ATP binding; sequences stand for … in TCGTCGGCAGCGTCAGATGTGTATAAGAGACAGTTTTTTTTTTTTTTTTTTTTTTTTT…TC). Conditions: aptamer strand: ATP DNA aptamer (quencher-CACCTGGGGGAGTATTGCGGAGGAAGG + anchor), 100 nM annealed; ATP concentration: 500 uM.
In short: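 Exposure to 500 uM ATP lasted 15 min at 22 °C before imaging, and a selection-buffer image was taken beforehand, for Cy3-labelled switching-strand clusters on a modified Illumina MiSeq flow-cell annealed to 100 nM quencher-labelled ATP aptamer. Five buffer/ATP cycles were run with NaOH stripping and re-annealing between them. The fluorescence ratio per cluster is summed target-cycle over summed buffer-cycle Cy3 intensity, averaged per switch-domain sequence. Clusters outside 100-1000 RFU were excluded.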
TGGGATTTTC showed a switch fluorescence ratio of 1.03 ± 0.067.
For TGGGCAATTT, the switch fluorescence ratio was 1.09 ± 0.036.
Sequence TGGGCAGAGG has a switch fluorescence ratio of 1.01 ± 0.024.
TGGGCAGGAC was tested, and the switch fluorescence ratio was 1.41 ± 0.49.
TGGGCAGGGA gave a switch fluorescence ratio of 0.9817 ± 0.0024.
For TGGGCATATA, the switch fluorescence ratio was 0.996 ± 0.012.
With TGGGCCAAGC the switch fluorescence ratio was 0.995 ± 0.025.
For TGGGCCCGGC, the switch fluorescence ratio was 1.02 ± 0.053.
In the case of TGGGCGAATC, the switch fluorescence ratio is reported as 0.998 ± 0.014.
In the case of TGGGCGGGA, the switch fluorescence ratio is reported as 1 ± 0.03.
TGGGCTATTT was tested, and the switch fluorescence ratio was 0.964 ± 0.017.
TGGGCTCTGT gave a switch fluorescence ratio of 0.978 ± 0.044.
In the case of TGGGCTTCGG, the switch fluorescence ratio is reported as 0.9689 ± 0.0093.
TGGGCTTGTT gave a switch fluorescence ratio of 0.999 ± 0.036.
Work on TGGGGAACGG yielded a switch fluorescence ratio of 0.981 ± 0.031.
TGGGGAAGGT was tested, and the switch fluorescence ratio was 0.994 ± 0.022.
Work on TGGGGAATCT yielded a switch fluorescence ratio of 1.02 ± 0.016.
For TGGGGAGAGC, the switch fluorescence ratio was 0.992 ± 0.019.
In the case of TGGGGAGGTT, the switch fluorescence ratio is reported as 0.97 ± 0.044.
In the case of TGGGGATTGG, the switch fluorescence ratio is reported as 1.17 ± 0.49.
With TGGGGATTTT the switch fluorescence ratio was 0.998 ± 0.063.
TGGGGCGAAG showed a switch fluorescence ratio of 1.01 ± 0.026.
Work on TGGGGCGGGT yielded a switch fluorescence ratio of 1.02 ± 0.017.
TGGGGCGTCT gave a switch fluorescence ratio of 1.01 ± 0.043.
With TGGGGCTGCC the switch fluorescence ratio was 0.969 ± 0.039.
TGGGGCTTCA gave a switch fluorescence ratio of 1.01 ± 0.028.
TGGGGGAAA was tested, and the switch fluorescence ratio was 0.988 ± 0.04.
In the case of TGGGGGAAAC, the switch fluorescence ratio is reported as 1.01 ± 0.032.
Sequence TGGGGGAACC has a switch fluorescence ratio of 1.004 ± 0.0099.
TGGGGGACGT showed a switch fluorescence ratio of 0.999 ± 0.045.
TGGGGGAGCG showed a switch fluorescence ratio of 0.99 ± 0.019.
Work on TGGGGGAGGT yielded a switch fluorescence ratio of 1 ± 0.027.
With TGGGGGCCAA the switch fluorescence ratio was 0.965 ± 0.012.
For TGGGGGCCCT, the switch fluorescence ratio was 0.996 ± 0.026.
Sequence TGGGGGCGCC has a switch fluorescence ratio of 0.982 ± 0.041.
TGGGGGCGGT was tested, and the switch fluorescence ratio was 0.996 ± 0.028.
TGGGGGCGTT was tested, and the switch fluorescence ratio was 1 ± 0.034.
TGGGGGGACA was tested, and the switch fluorescence ratio was 0.985 ± 0.015.
TGGGGGGCCG was tested, and the switch fluorescence ratio was 1.06 ± 0.19.
TGGGGGGCTT gave a switch fluorescence ratio of 0.989 ± 0.023.
Sequence TGGGGGTGGA has a switch fluorescence ratio of 1.01 ± 0.046.
Work on TGGGGGTGTT yielded a switch fluorescence ratio of 1 ± 0.032.
In the case of TGGGGGTTGC, the switch fluorescence ratio is reported as 0.982 ± 0.042.
In the case of TGGGGGTTTC, the switch fluorescence ratio is reported as 0.975 ± 0.053.
With TGGGGTACCT the switch fluorescence ratio was 1.08 ± 0.077.
Sequence TGGGGTACTA has a switch fluorescence ratio of 0.975 ± 0.069.
Sequence TGGGGTATTA has a switch fluorescence ratio of 0.998 ± 0.018.
TGGGGTCGGG was tested, and the switch fluorescence ratio was 1 ± 0.022.
Work on TGGGGTCGTC yielded a switch fluorescence ratio of 1.038 ± 0.0087.
TGGGGTCGTG was tested, and the switch fluorescence ratio was 0.964 ± 0.022.
For TGGGGTGCAC, the switch fluorescence ratio was 0.957 ± 0.024.
TGGGGTTATC showed a switch fluorescence ratio of 0.9931 ± 0.0079.
With TGGGGTTATG the switch fluorescence ratio was 0.984 ± 0.019.
TGGGGTTG was tested, and the switch fluorescence ratio was 0.993 ± 0.018.
Sequence TGGGGTTGAG has a switch fluorescence ratio of 0.984 ± 0.019.
Work on TGGGGTTGAT yielded a switch fluorescence ratio of 0.968 ± 0.033.
TGGGGTTTCA gave a switch fluorescence ratio of 1 ± 0.012.
For TGGGGTTTCC, the switch fluorescence ratio was 1.16 ± 0.32.
For TGGGTAAACA, the switch fluorescence ratio was 1.02 ± 0.012.
In the case of TGGGTAACGT, the switch fluorescence ratio is reported as 0.987 ± 0.033.
TGGGTAAGGC showed a switch fluorescence ratio of 0.961 ± 0.08.
With TGGGTAATGC the switch fluorescence ratio was 1.27 ± 0.13.
With TGGGTAATTG the switch fluorescence ratio was 1.01 ± 0.019.
TGGGTACAGT was tested, and the switch fluorescence ratio was 1.03 ± 0.05.
TGGGTAGGTT was tested, and the switch fluorescence ratio was 1.06 ± 0.035.
Sequence TGGGTATAGG has a switch fluorescence ratio of 0.975 ± 0.016.
Work on TGGGTCCGTT yielded a switch fluorescence ratio of 1.01 ± 0.036.
TGGGTCTCTA was tested, and the switch fluorescence ratio was 1 ± 0.018.
TGGGTCTTGG showed a switch fluorescence ratio of 0.9835 ± 0.0057.
For TGGGTGCCGT, the switch fluorescence ratio was 1.04 ± 0.034.
TGGGTGGAGG showed a switch fluorescence ratio of 1.02 ± 0.043.
TGGGTGGCAA gave a switch fluorescence ratio of 1.03 ± 0.05.
TGGGTGGGAA was tested, and the switch fluorescence ratio was 1.02 ± 0.04.
With TGGGTGGGGG the switch fluorescence ratio was 1 ± 0.024.
TGGGTGGTCT was tested, and the switch fluorescence ratio was 0.9972 ± 0.0054.
Sequence TGGGTGGTTT has a switch fluorescence ratio of 1.02 ± 0.019.
For TGGGTGTGCT, the switch fluorescence ratio was 1.01 ± 0.03.
In the case of TGGGTGTTGC, the switch fluorescence ratio is reported as 0.941 ± 0.083.
TGGGTGTTTG showed a switch fluorescence ratio of 1.03 ± 0.038.
TGGGTTAAAG showed a switch fluorescence ratio of 0.993 ± 0.016.
TGGGTTAAGA gave a switch fluorescence ratio of 1.01 ± 0.034.
TGGGTTAATG was tested, and the switch fluorescence ratio was 0.9912 ± 0.0069.
TGGGTTATCG showed a switch fluorescence ratio of 0.998 ± 0.025.
For TGGGTTCGAA, the switch fluorescence ratio was 0.98 ± 0.013.
Sequence TGGGTTGTTA has a switch fluorescence ratio of 0.9852 ± 0.0095.
